From the supplement of paper PMC10724198
± gives the standard deviation of the averaged measurements.

system: Saccharomyces cerevisiae; experiment: protein stability index of tFT-peptide fusion (C-terminal peptide) (PSI (0-1 scale)); higher = more stable (slower turnover); conditions: genetic background: wild type; temperature: 30 C
Procedure: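 Multiplexed protein stability (MPS) profiling in S. cerevisiae. Random 12-aa peptides (tFT-X12 library) are fused to the C-terminus of a sfGFP-mCherry tandem fluorescent timer, after mCherry and a GGGS linker. Cells are FACS-sorted into 8 mCherry/sfGFP bins and deep-sequenced. The protein stability index (PSI) is the read-weighted bin average, scaled from 0 (unstable) to 1 (stable). Only peptides with >10 reads are reported; cells were grown at 30 °C in SC-His with glucose.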
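Note: PSI is a weighted mean of sequencing reads over stability bins, variants kept only with over 10 reads, mCherry proximal and sfGFP distal, peptide attached via GGGS linker.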

| Sequence | protein stability index |
| --- | --- |
| PCPLPSPHPPPR | 0.717 ± 0.046 |
| GRRNVGLKNSGL | 0.645 ± 0.028 |
| LFRRPLLRPPPF | 0.745 ± 0.024 |
| LPSLDSVCLLFP | 0.685 ± 0.026 |
| CFKETLLKGSRQ | 0.718 ± 0.034 |
| PLSLICLLKSYL | 0.708 ± 0.025 |
| GQVCSWRCVCYL | 0.6741 ± 0.0065 |
| LADRTREFSNPA | 0.6466 ± 0.0054 |
| APLSRPLRLPHP | 0.692 ± 0.022 |
| SCFLISIPLGFV | 0.5678 ± 0.0055 |
| KKNETKQEKNTR | 0.689 ± 0.026 |
| PNGSRPAHGVKN | 0.646 ± 0.032 |
| WHRCQWTPASRP | 0.733 ± 0.05 |
| ELLHMAAGLGGR | 0.643 ± 0.015 |
| KCCRVTCCGGLR | 0.65 ± 0.028 |
| YLGYADDLLIML | 0.707 ± 0.018 |
| RSGENTVKPVRQ | 0.658 ± 0.029 |
| PAHAPSLSPPPF | 0.697 ± 0.016 |
| VMRRYVFPSGFF | 0.677 ± 0.023 |
| VVRLRCSVGWCS | 0.575 ± 0.011 |
| RLSPPPTLSRFH | 0.643 ± 0.03 |
| KKLGLRLTFLHC | 0.564 ± 0.043 |
| VRLWLTLQQVDF | 0.686 ± 0.085 |
| RYYNDKKEKNIL | 0.706 ± 0.0085 |
| ERNSKKKRKRRL | 0.701 ± 0.08 |

| Sequence | protein stability index |
| --- | --- |
| GFRFSERRFPGL | 0.733 ± 0.0092 |
| RKKIKRKNNKEK | 0.685 ± 0.052 |
| AGGGHCVGMGVG | 0.642 ± 0.037 |
| GAVGDRVRVCGS | 0.668 ± 0.02 |
| SLLSTPPPLASP | 0.669 ± 0.039 |
| PPPYAPLPPTWP | 0.726 ± 0.023 |
| VGSKGCDGCNRA | 0.655 ± 0.047 |
| FPPLLASPPPSP | 0.705 ± 0.011 |
| EKKKKRNKVNQN | 0.709 ± 0.064 |
| PPAICSFLSPPF | 0.655 ± 0.017 |
| HVRVGRGLAVMC | 0.528 ± 0.027 |
| WGQGTGFWGLFG | 0.681 ± 0.024 |
| PPPTLPSPPSPP | 0.712 ± 0.011 |
| LPVPPPPPLPET | 0.702 ± 0.061 |
| VLVEWQTCRTRK | 0.656 ± 0.097 |
| GRRDVTFGTAFF | 0.753 ± 0.052 |
| LACTSPLLLRFR | 0.673 ± 0.023 |
| GGRGAGRGSVGG | 0.679 ± 0.034 |
| DVGSRGPPHTDG | 0.687 ± 0.074 |
| SPPLLLPNLCPC | 0.543 ± 0.023 |
| PPLPPLPSPSPP | 0.721 ± 0.092 |
| GCRRGGGFLECV | 0.633 ± 0.034 |
| TPPLPPPPPPIH | 0.7413 ± 0.0029 |
| SRVVHSHRSFRP | 0.6843 ± 0.0047 |
| PPLPPPTSPPRP | 0.69 ± 0.038 |

| Sequence | protein stability index |
| --- | --- |
| QKREEPQNKSQD | 0.72 ± 0.017 |
| PPRLDLPFPLSR | 0.747 ± 0.08 |
| VIESRNEEGGRV | 0.727 ± 0.022 |
| TFIKMEKKKDGG | 0.663 ± 0.034 |
| FPLIFALFPTFF | 0.603 ± 0.0067 |
| VIDTGAGSILEI | 0.7 ± 0.042 |
| DFSLQILALCYF | 0.558 ± 0.018 |
| ISYQVDIIKGKI | 0.6781 ± 0.00071 |
| LPPSSFPTPSPP | 0.723 ± 0.08 |
| RVRCPVVSGGRG | 0.707 ± 0.099 |
| CWGGRSYVYNIG | 0.662 ± 0.016 |
| GKRTGRKKRRKR | 0.638 ± 0.095 |
| GGVLSAGSWSGG | 0.665 ± 0.019 |
| RLTLPSQPHAPA | 0.694 ± 0.098 |
| PPPPFSPAHLPH | 0.6993 ± 0.0042 |
| RVLVSPPPPLPS | 0.688 ± 0.026 |
| KSAGNWSKGKRE | 0.713 ± 0.083 |
| PVPLLHPRSLSL | 0.781 ± 0.074 |
| DVRMGCVGVSNI | 0.71 ± 0.0088 |
| EIVTQQKIMDKK | 0.711 ± 0.012 |
| PLPWIFHCRAPL | 0.719 ± 0.048 |
| PLLTPPFFPPPP | 0.7588 ± 0.0053 |
| WGGLGGREPGGS | 0.74 ± 0.078 |
| NGPAPTFSPAVR | 0.685 ± 0.032 |
| CFGFAGVGSLSC | 0.752 ± 0.13 |

| Sequence | protein stability index |
| --- | --- |
| RRVGVVAWGRGG | 0.71 ± 0.01 |
| PIPPPAPPPAPP | 0.6778 ± 0.0036 |
| TTEESGGEGEGG | 0.664 ± 0.014 |
| FLCNSVAGSLCI | 0.643 ± 0.022 |
| TSAPPPPPPPPP | 0.608 ± 0.021 |
| GRSQGIWVSRGE | 0.683 ± 0.028 |
| GDPWLGVRNAVG | 0.749 ± 0.22 |
| PESPLFPPLLPS | 0.6599 ± 0.0018 |
| PRDSRPLPAYSL | 0.591 ± 0.028 |
| RGGRMGFYLVCI | 0.636 ± 0.028 |
| MLLSKRHFESDV | 0.692 ± 0.018 |
| QLYGHNRRNQGL | 0.611 ± 0.046 |
| DFCPCPRWFLRR | 0.715 ± 0.086 |
| ESLVIIIAGSMF | 0.567 ± 0.15 |
| VPRMLSTPKAQP | 0.723 ± 0.01 |
| TPPPSLPPPPPP | 0.627 ± 0.07 |
| RLAPASAFPHSP | 0.687 ± 0.052 |
| QGIKKKKEKERR | 0.768 ± 0.14 |
| GRGSGIAMGVWV | 0.801 ± 0.19 |
| DVILVSLPPPSV | 0.676 ± 0.049 |
| RLLENVSYDWRN | 0.714 ± 0.016 |
| PNPHDPQLPPPH | 0.709 ± 0.05 |
| GGRGRVGEMGGR | 0.677 ± 0.015 |
